Assay: soluble on expression in E. coli; label from the status in PepcDB or PDB records

Sequence	soluble on expression in E. coli
MPIRDDISWPPSAVCSVSLILHLPGRFGHVSVAHLLLDHGADVNAQNRLGASVLTVASRGGHLGVVKLLLEAGAFVDHHHPSGEQLGLGGSRDEPLDITALMAAIQHGHEAVVRLLMEWGADPNHAARTVGWSPLMLAALTGRLGVAQQLVEKGANPDHLSVLEKTAFEVALDCKHRDLVDYLDPLTTVRPKTGQAACPPWLHRGPQIVFMWLKLRIALLEGHAELRVQPCRPLRLRKWCA	soluble
MPITSTTPEPGIVAVTVDYPPVNAIPSKAWFDLADAVTAAGANSDTRAVILRAEGRGFNAGVDIKEMQRTEGFTALIDANRGCFAAFRAVYECAVPVIAAVNGFCVGGGIGLVGNSDVIVASEDATFGLPEVERGALGAATHLSRLVPQHLMRRLFFTAATVDAATLQHFGSVHEVVSRDQLDEAALRVARDIAAKDTRVIRAAKEALNFIDVQRVNASYRMEQGFTFELNLAGVADEHRDAFVKKS	not soluble
MPKDNTWYTGAKLGWSQYSRENQLGAGAFGGYQVNPYVGFEMGYDWLGRMPRKAQGVQLTAKLGYPKLGTDDLDIYTRLGGMVWRADTSDKDGNGYISAAEASVSPVFAGGVEYVIRRRITPEIATRLEYQWTNNASDNGMLSLGVSYRFGQGEAA	soluble
MPKKNNTKRAPPSVPKPSGPPPRLLQLTSSDGHLLQGDIRALLLSSTLAATIRELGYDKEYCAELKPVPVNNVVGFTLKLLIEWCDKHKEDDPAIALAEKDKKNICIPSWDRHFLSRLPMSNLFDLITAAYHLDVTGLINYGCKTVANSAKGKNAEEMRELFGIPEPWEQPSTSTATWDD	not soluble
MPKKVVPEEARRRRRPTRQGAVLSEGLIVRTALRMLREHGTGGLTARRLGAALGADPSTLYRYFAGMDDLARAVGNELMGQALDGWTAQGDWRADLRSLGLALHSSYLAHPQAAVLTASRVSGRPREIAVDEAILGLLRGAGLTDRAAVRFYHAFIDLALAFAALDAGSLALPEEARRSDEDMWGTTYARLPAETHPNIAATAERLAARMPHSAYPVVLDTLLDGIAAELTGTAPEM	not soluble
MPKLSIIIPAYNNAHLLPETLDSIFSQDCEPFELIVVDDGSTDNTRDVVEGYGRGIVYLWQENSGGCSKPRNVGIRHATGEYIAMFDSDDIMKPGKVRSQMDFLDRNPDVDFVFTDFCDFRGAEVLASHITTCPIFNSLPKQKVGEDAYVISSTAAYETLLVENFIGGSAMMFRKSLFNEAGPFDETLEVSEDIDFTLRVARTHALGFINRIGHHRRLHDGNMTSKAEKILTRSLRVFGGHLSAPKSSKAQQRLIDKVAGLHGALAYHYRENARYGEALAEYRASLSLRPACLGTYKAMAKLAVMALTSGGKLEHHHHHH	soluble
MPKVEIAPSEIKIPDNVLKAKLGFGGAEEIPEEFRKTVNRAYEELLDAAKPVVLWRDFEVDGSLSFDDMRLTGELATKHLSGSKIITVFLATLGKKVDEKIEEYFRKGEDLLAFFIDGIASEMVEYALRKVDAELRMKRSNLEGSFRISPGYGDLPLSLNKKIAEIFKEEVDVNVIEDSYVLVPRKTITAFVGWREKNEKQT	not soluble
MPLAVLERDGSFLGVLTPHSIVEVLLERERRLLEDARKINAEIRREADKAIEQLDIKAHYDTVTGLPNRQLFCDRLLQALAAHERDGNPVVLLFLDVDNFKSINDSLGHLVGDRLLRATAERIRTAVRDGDTVARIGGDEFTILLNGAKDTLNGALVAQKILDGLAQPFVFGAQQIVISVSIGIAVSPADGETMEQLLRNADTAMYHAKSRGKNNYQFFSPELNVQAYRRQEIERNLRCALLQGELGLRYAPRVDLRSGRIVALEVCPFWLSSELGDVPPDDFIPVAEETGLIVQIGIWAFRTACAHAAVWRTQGLADRCLSFRLSQRELDDPQFGDRIMSLLDGCGLEPENLQFELSERMLMTHAAHTLAVLQELSNRGIRFSVGDFGTGNASLRRLRRFPIDELKIDLSSVRDIEPDSDDAAVITAMIAMAKSLRMDVVAVGVETPEHVAFLLERGCRHGQGRLIGARLPPERIAALLAGDAVDLFVALEHHHHHH	not soluble
MPLCLKINKKHGEQTRRILIENNLLNKDYKITSEGNYLYLPIKDVDEDILKSILNIEFELVDKELEEKKIIKKPSFREIISKKYRKEIDEGLISLSYDVVGDLVILQISDEVDEKIRKEIGELAYKLIPCKGVFRRKSEVKGEFRVRELEHLAGENRTLTIHKENGYRLWVDIAKVYFSPRLGGERARIMKKVSLNDVVVDMFAGVGPFSIACKNAKKIYAIDINPHAIELLKKNIKLNKLEHKIIPILSDVREVDVKGNRVIMNLPKFAHKFIDKALDIVEEGGVIHYYTIGKDFDKAIKLFEKKCDCEVLEKRIVKSYAPREYILALDFKINKK	soluble
MPLFGSIFSPKKTPPRKSASLSNLHSLDRSTRELELGLDYGTPTMNLAGQSLKFENGQWVADSVISGGVDRRETQRLRKRNQQLEEENNLLRLKVDILLDMLSETTAESHLKDKELDELKVTNRRRK	not soluble
MPLNRNHSELRSGKVNLKNGDPFTIALFGVDSDEKRKQQGGGERSDTIMVLSINPKEKKTELVSIPRDTKAEIAGRGTEEKINHAYAYGGPNMAVKTIEKLMNVPIDHYATIDMDGLHDMIDTLGGVDVVSNSTFTMGANHFVKGEKTHVDGDAAMDFIRSRKEDGAGGDFGRQERQQLILEAMADKMTSASSITHFNTLMNQIQKNVKTDLKLGDLNTIRTKYKDANDQVNRHQLEGEGGIQNDGLYYFIPSDASKNENTQLLRDNLNLLEHHHHHH	soluble
MPLRVDTLTWLSTQAAPGRVMVWPAVRPGICPGPDVWRIPLGPLPHEFRGWIAPCRPRLGASEAGDWLRRPSEGALPGPYIALRSIPKLPPPEDISGILKELQQLAKELRQKRLSLGYSQADVGIAVGALFGKVLSQTTICRFEAQQLSVANMWKLRPLLKKWLKEVEAENLLGLCKMEMILQQSGKWRRASRERRIGNSLEKFFQRCPKPTPQQISHIAGCLQLQKDVVRVWFYNRSKMGSRPTNDASPREIVGTAGPPCPGAPVCFHLGLGLPVDIPHYTRLYSAGVAHSSAPATTLGLLRF	soluble
MPLTFAHSFADAVPSLSVPWRAEQWPDPRIIVFNHELGQELGIDEASLLSNITQQGHAQAYSGHQFGQFNPLLGDGRALVLGDCAQTNAPHGQFEISLKGSGPTPFARRGDGRATLGPMLREYLISEALHGLGIPTTRSLAVITTGTDVQRERLLPGAVVVRVAQNHLRVGSVQCAAMRDDDSLAALVRYALSSHEDGVSDAEAAGLLLRRVSTSQAKLVAQWMRFGFVHGVMNTDNVTLSGQTIDFGPCAFIDSFHPQAVFSSIDSHGRYSFGRQPSIMGWNIARLAEALLPLMSIDEARNIVHEFPDMYRRSWLDEMADAVGISPDDDHAAGVLDDLVALLDVHRPDYAQFMRSLSDGTTVSLFPWAQQWEAEVSSLRVAAPRNPVYVPRNYLVEDALEHAMNADMSVFSLLVEAGKNPYLREKRFEKLENPAPETWQDYVTYCGT	not soluble
MPMINALGLLEVDGMVAAIDAADAMLKAANVRLLSHEVLDPGRLTLVVEGDLAACRAALDAGCAAAMRTGRVISRKEIGRPDDDTQWLVTGFNRQPKQPVREPDAPVIVAESADELLALLTSVRQGMTAGEVAAHFGWPLEKARNALEQLFSAGTLRKRSSRYRLKPH	not soluble
MPMNNFLDEFNLFDSIITMMKNDPCCVEDYEPIVENLNRIFQRTFNDEEHRKSMANSQLFWERLRDTLEAMLLPASLNENSSIPYTRTVRGLILMMRNLAAENQEIPQKLLLQNLVIRGFLHATSEYVVDTPLIKHLYIACLTCLFNIQQNYSTVDMTTFPALLQFLQYPYGIKLEDGEEEEHFWLPYLFLFKTYLNNDEFSNEFFRDNDTPQKDYYCVRDRIFFDIVTAKFIQDQENSFLIEKGRNYLDDSKLEITSIDLSVLECISKSLTTASFGKYLNGLEERQPGKFTTLLQILQLVVTSKEDWNTYELTAIMSWCYPILQRLACKDIPAFFNKSCNDYAPSVAIQLHSTLLSCLDIISDLCKFNHVRKFLISYDSVKILVSLLDTFQKNLLRINFLKGNGDTVNEIKITDHEGNKIEDRLLIFNRVNTNESFIRADNFPHCKLVIIEILASLVYAHPEIQDQIRELGGLALILSNCVIDDNDPFIKERSIVCLKFLLKNNAKNQEYVKKMEAQDVVQDDALSKAGFEISVEKGGKVRLVSKEEDPGNENSEIISIDED	not soluble
MPPKGGGAGSKKQQGGKKCKDDEADFDAQLAKALQEVQVSKDKQGGDANKKAQKGKQRTSKQESNGEANDNNDASDPKVVSTADHPDNPYPQVAEGMKRQTWPEPTIPVSQQFARGNFPVGIICEHPGEVNAYRYSSEEKRAMEHATEEQVQDLRCAAEVHRQVRRYAQSFIKPGISLLSMTDRIEKKLEELIEKDGLNRGQAFPTGCSLNHVAAHYTPNTGDKCVLMYDDVMKVDFGTQINGRIIDCAWTVAFKDEYEPLLTAVKEATYEGVKQAGIDVRLCDVGAAIQEVMESYEVELNGKVYPVKSIRNLSGHTIAPYVIHGGKSVPIVRGGEATRMEEGELFAIETFGSTGRGFVQEDMECSHYMMVPGGEKTQVRSDKAQQLLRHIHKTYNTLAFARKWLDRDGHDRHLLNLNQLVEAGAVNKYPPLCDIRGCYTAQLEHTLILKPTAKEILSKGDDY	soluble
MPPKKAPAKKLHELAAEVRVGHKINDISKKTFIVGKQFATGGFGRIHTCTEEGKSQQMVMKIEPSTNGPLLTEVVVFNRILKKELIESYKKKKKISWIGLPYLIANGYFTYESEKMRYMIIPKYATSLEAVRETNGGTLAMKDSLTVASCILDALEYLHESDYAHADVKAANILLEKQGVYSTAVLVDFGLAHRTTNNVDKPDKKRAHNGTCIFTSTDAHRGNNPSFRGDIEILAYNLMMWATGTLPWMALESSPEKVFDAKQKFIAGLPGTLQNVLKNESSAVVGCIASMFDISMKTNYTDKVDMGKLKKLVTDAIQKTSSDGKKTPTRQKKLAEEDKNAVTPKRSTRRLAVKEESDNKDNDEVEVKPEKKATPRKRTTRKAVEVNNDSDDNEEQYENPKSKSSRTQTKSKRAKEEDVDDEEEIIIPKSSRSRSKVQLSGEGSDVTTPSSAASTSRSRSIRLGLTSSTASSNKVAKKIEQKYKRLSMNKSSLVPVTISVASDKSPTTSTPSSSSGLRSKRKSSEDVGEGITLKTQVLITPAIKKAKTKSGISSATKASPTELRRVPGVRNFPKGRRSMIIKETSAKYKERLASRQTKPTFDDSSCSSEV	not soluble
MPPKKDPKGGKAPPSKKKEGSGGGKAKKKKWSKGKVRDKLNNMVLFDQATYDKLYKEVITYKLITPSVVSERLKVRASLAKAGLKELQAKGLVKCVVHHHGQVVYTRATKEADVIVE	soluble
MPPRCYNSNSRRAELLERIQSDIPATVAQALSEDLGGEVNADRDLTAQLLPADKQATATIITREDGIFCGQRWLNEVFIQLGAQISIQWLVTDGDKLTANQTLCHLTGPARILLTGERTALNFLQTLSGVATEVSRYVVQLAGLKTQLLDTRKTLPGLRTALKYAVLCGGGNNHRLGLSDAFLIKENHIIAAGSIKEAVAKAFWIHADVPIEVEVESLDELQQALEAGADIVMLDNFTIPMMRDAVKMRDDHAKTQGSAQLEVSGNVTLETLRSYAETGIDFISVGALTKHITALDLSMRFQ	not soluble
MPQLSRYSDEHVEQLLSELLSVLEKHKAPTDLSLMVLGNMVTNLINTSVAPAQRQAIANSFARALQSSISEDNAH	not soluble
MPQVAKTYESLAREAADNNLDYEEYLLCVLEQEVHQRENNRIQRGIRQAGFPVIKTIESFDFLAIPSLNKPRVLKLMQGEYIRRRENVILIGNSGVGKTHIATALGYEACRQGMKVKFYTAAGLINELLAAQQEYRLNKLEKQWLAPHLVILDELGYVPFSKIGAELLFQFCSSRYERGSLIITTNLEFPRWTEVLGDEQMTAALLDRLTHNAHILNINGESYRFKQALSKQANND	soluble
MPRKKSAGPRSFGEPLTDDPDDAPELLDEFFRTGEIRVDGKIVRRGRPPLGTQPKSSVTLRLDADVLDAYRALGRGWQSQINADLRRVRKLKKA	not soluble

— the DeepSol protein solubility set
